# From patent US9663815B2, “Cytosolically-active peroxidases as reporters for microscopy” (Massachusetts Institute of Technology, priority 2011, dated 2017)
# Key:
# [1] = test system: MCU (mitochondrial calcium uniporter); experiment: Functional assay for Ca2+ uptake of MCU fusions; assay type: cell-based, human; conditions: fusion to MCU, versus Flag-tagged MCU; data not shown
# HEK cells = experiment: DAB staining of transfected cells (brightfield); assay type: cell-based
# Procedure: Next, the activity of wt APX and mAPX was compared in mammalian cells.
# (§1) To generate a monomeric APX with improved activity, the two mAPX mutations (K14D/E112K) were added to each of the activity-enhanced mutants. […] The sextuple mutant (K14D, E112K, W41F, D133A, T135F, K136F=mAPX−FFAF), was compared to mAPX+W41F within cells. HEK cells were transfected with constructs targeted to the mitochondrial matrix (Table 3), while COS-7 cells were transfected with constructs fused to the C-terminus of connexin 43 (Table 3). After fixation, the cells were treated with DAB and H2O2 to generate DAB polymer. […] After fixation, cells were stained with anti-Flag (for matrix) or anti-myc (for connexin) antibody to visualize peroxidase expression levels. […] Therefore mAPX+W41F (K14D/E112K/W41F) was selected, denoted as “APEX” (for Enhanced APX), as the optimized reporter for subsequent experiments.
# A solution of 4% formaldehyde (freshly depolymerized from paraformaldehyde) with 2% glutaraldehyde in 10 mM phosphate buffered saline (PBS) was added to cells 24 hours after transfection. Cells were treated for 3 min at room temperature, then 30 min on ice. Cells were then washed 5×2 min using ice cold 10 mM PBS. Cells were blocked with 20 mM glycine for 5 min on ice. Cells were then washed 5×2 min with ice-cold 10 mM PBS. Cells were then treated with an ice-cold solution of DAB (0.5 mg/mL) and H2O2 (0.03%) in 10 mM PBS for 20 min. Cells were then washed 5×2 min with ice-cold 10 mM PBS. Cells were treated with 2% OsO4 in ice-cold 10 mM PBS for 30 min, then washed 5×2 min with ice-cold distilled deionized water. Cells were then placed under ice-cold 2% aqueous uranyl acetate for 24 hours.
# (§2) Any cell displaying detectable GFP fluorescence was considered transfected. Contact sites between neighboring transfected cells were identified using DIC imaging. Gap junctions were identified as lines of GFP fluorescence unambiguously overlaying with the plasma membrane of two transfected cells based on DIC. DAB stain intensity for APX-NES variants was analyzed using SlideBook. Transfected cells were identified by nuclear YFP fluorescence. In each transfected cell, a representative DAB-stained region was encircled, and its average brightfield intensity was calculated. Background intensity, determined for each field of view by encircling a representative region in the cytosol of an untransfected cell, was subtracted out. The bar graph in FIG. 2c represents mean data from >60 transfected cells.
# [2] = Gel filtration chromatography, oligomerization state; assay type: physicochemical; conditions: PBS pH 7.4
# Procedure: APX, fluorescent protein, or miniSOG preparations were diluted to the desired concentrations using chilled (4° C.) PBS and then allowed to incubate at room temperature for 30 min to overnight. Samples (100 μL) were run on a Waters HPLC system over a Superdex 75 10/300 column (GE Healthcare) that had been pre-equilibrated in PBS, pH 7.4. Samples were run isocratically in PBS at a flow rate of 0.5 mL/min. Elution of APX was monitored at 280 nm and 405 nm (heme absorbance). Empower software (Waters) was used for analysis of elution profiles. Apparent MWs were determined against low molecular weight standards (GE). […] The apparent MW of the monomer for wt APX was assumed to be equal to the apparent MW of mAPX at 0.25 μM.
# To investigate whether this localization is an artifact of APEX dimerization at high concentrations, the experiment was repeated using a tandem dimer of APX^W41F (two APX^W41F proteins linked with a short amino acid chain, denoted tdAPX) as well as miniSOG in place of APEX. Additionally, gel filtration chromatography (GFC) was used to assess the relative abundance of oligomers that formed at increasing tdAPX concentrations in vitro (5 μM, 20 μM, and 47 μM). Three different linker lengths (18, 23, and 28 amino acids) were tested. His6-tagged proteins were expressed and purified from E. coli. All three variants gave a major peak with an apparent molecular weight (MW) of ˜56 kDa, as expected for tdAPX. The apparent MW of the major peak remained constant as a function of concentration for all three constructs. […] Therefore, the 28 amino acid linker variant was selected as the optimized tandem dimer to be used in EM experiments.
# connexin43 (Cx43) = experiment: Connexin43 fusion localization to gap junctions; assay type: cell-based, rat; conditions: for localization of connexin43 fusion / gap junction formation: fused to connexin43
# Procedure: Both mAPX and wt APX were fused to connexin43 (Cx43), a protein that is sensitive to oligomeric tags (FIG. 4d) (McKinney, et. al., Nat Meth 6, 131-133 (2009); Lauf, et. al., FEBS letters 498, 11-15 (2001)).
# as §1, §2
# COS-7 cells = experiment: EM imaging after DAB/OsO4 staining; assay type: cell-based
# Procedure: Transfected cells cultured on poly-d-lysine coated glass bottom dishes (P35GC-0-14-C, MatTek Corp.) were fixed using room temperature 2% glutaraldehyde (Electron Microscopy Sciences) in 100 mM sodium cacodylate buffer with 2 mM CaCl2, pH 7.4, then quickly moved to ice. Cells were kept between 0 and 4° C. for all subsequent steps until resin infiltration. After 30-60 min, cells were rinsed 5×2 min in chilled buffer, then treated for 5 min in buffer containing 20 mM glycine to quench unreacted glutaraldehyde, followed by 5×2 min rinses in chilled buffer. A freshly-diluted solution of 0.5 mg/mL 3,3′-diaminobenzidine (DAB) tetrahydrochloride or the DAB free base (Sigma) dissolved in HCl were combined with 0.03% (v/v) H2O2 in chilled buffer, and the solution was added to cells for 1 to 15 min, depending on the sample. The reaction product generation could be monitored by transmitted LM. To halt the reaction, the DAB solution was removed, and cells were rinsed 5×2 min with chilled buffer. For correlated LM-EM imaging of connexin43-GFP-APEX, the procedure was the same except cells were immersed in 2% glutaraldehyde for ˜16 h, and regions of interest were identified by GFP fluorescence prior to treatment with DAB. After the DAB reaction was halted, cells were post-fixed for 30 min using 2% osmium tetroxide (Electron Microscopy Sciences) in chilled buffer. Cells were rinsed 5×2 min in chilled distilled water, then placed in chilled 2% aqueous uranyl acetate (Electron Microscopy Sciences) overnight. […]
# DAB-stained areas of embedded cultured cells were identified by transmitted light and the areas of interest were sawed out using a jeweler's saw and mounted on dummy acrylic blocks with cyanoacrylic adhesive. […] Electron micrographs recorded using a JEOL 1200 TEM operating at 80 keV.
# [3] = Guaiacol activity assay (Michaelis-Menten kinetics); assay type: biochemical; conditions: guaiacol as substrate, purified enzyme
# Procedure: Data points represent the mean±standard deviation of 2-3 independent measurements. Initial rates are shown as a function of guaiacol concentration. H2O2 concentration was 90 μM, and enzyme concentration was 20 nM in all trials. Oxidation to tetraguaiacol was monitored by absorbance at 470 nm (ε470=22×10^3 M^−1 cm^−1)^2.
# High activity toward guaiacol generally correlated well with robust polymerization of DAB in vitro. Guaiacol assays were performed on a Nanodrop 2000c UV-vis spectrophotometer (Thermo Scientific) using its cuvette reader. HRP (Sigma) was prepared as a 10 μM stock in PBS, flash frozen and stored at −80° C., and thawed immediately before use. Guaiacol peroxidase activity was measured according to the protocol of Lad et. al.^35 Oxidation to tetraguaiacol was monitored by absorbance at 470 nm (ε470=22×10^3 M^−1 cm^−1). Kcat and KM were calculated by nonlinear regression fitting to the Michaelis-Menten equation using OriginPro (OriginLab Corporation). All values are reported as the mean±standard deviation for 2-3 independent Michaelis-Menten fittings, with each fitting using at least 5 values of substrate concentration ranging between 0.25 and 30 mM.
# In order to improve the performance of mAPX in mammalian cells, monomeric APX was engineered with improved activity toward DAB in the hope that faster kinetics could compensate for diminished heme binding. The substrate binding site of APX was compared to that of HRP, which has faster kinetics and broader aromatic substrate tolerance (Henriksen, et. al., Journal of Biological Chemistry 274, 35005-35011 (1999)). In order to make APX more HRP-like, seven mutants of APX were designed that incorporated mostly aromatic residues into the active site (FIG. 5a). A colorimetric assay was employed using guaiacol, a prototypical aromatic peroxidase substrate, to determine Michaelis-Menten parameters (Kumar, et. al., Journal of Cell Science 108, 3725-3734 (1995); Henriksen, et. al., Journal of Biological Chemistry 274, 35005-35011 (1999)) (FIG. 5b and FIG. 10). […]
molecule,measurement,setting,value
"APEX: triple mutant K14D/W41F/E112K of pea APX, Enhanced APX reporter (protein, listed as Pisum sativum) MGKSYPTVSPDYQDAIEKAKRKLRGFIAEKKCAPLILRLAFHSAGTFDSKTKTGGPFGTIKHQAELAHGANNGLDIAVRLLEPIKEQFPIVSYADFYQLAGVVAVEITGGPKVPFHPGREDKPEPPPEGRLPDATKGSDHLRDVFGKAMGLSDQDIVALSGGHTIGAAHKERSGFEGPWTSNPLIFDNSYFTELLTGEKDGLLQLPSDKALLTDSVFRPLVEKYAADEDVFFADYAEAHLKLSELGFAEA",Ca2+ uptake of MCU fusion,[1],performed comparably to MCU appended to a small Flag epitope tag
same,DAB staining activity in mitochondrial matrix,"HEK cells; mitochondrial matrix-targeted constructs, HEK cells",much stronger DAB stain
same,oligomerization state,[2],equally monomeric to mAPX
same,DAB stain of connexin fusion,"connexin43 (Cx43); COS-7 cells, fused to C-terminus of connexin 43",strong DAB stain
same,localization of connexin43 fusion / gap junction formation,connexin43 (Cx43),behaves well as a fusion to Cx43
same,localization of connexin43 fusion / gap junction formation,connexin43 (Cx43); listed as mAPX+W41F,incorporated well into gap junctions
same,"EM contrast / DAB staining, ER lumen","COS-7 cells; KDEL-targeted, COS-7",dense DAB staining throughout the ER tubular network
same,"EM contrast / DAB staining, mitochondrial matrix","COS-7 cells; Mito matrix-APEX, COS-7",strong contrast and well-defined cristae structures
same,activity in the intermembrane space (IMS),COS-7 cells; separate controls,highly active
"mAPX-NES: Flag-mAPX with C-terminal nuclear export signal, cytosolic expression (protein, UniProt P48534 2-250, looked up, variant K14D E112K, N-terminal Flag tag; C-terminal nuclear export signal, Flag-mAPX with C-terminal nuclear export signal, cytosolic expression) L-ascorbate peroxidase, …: GKSYPTVSPDYQDAIEKAKRKLRGFIAEKKCAPLILRLAWHSAGTFDSKTKTGGPFGTIKHQAELAHGANNGLDIAVRLLEPIKEQFPIVSYADFYQLAGVVAVEITGGPKVPFHPGREDKPEPPPEGRLPDATKGSDHLRDVFGKAMGLSDQDIVALSGGHTIGAAHKERSGFEGPWTSNPLIFDNSYFTELLTGEKDGLLQLPSDKALLTDSVFRPLVEKYAADEDVFFADYAEAHLKLSELGFAEA",activity after culturing the cells with heme,"HEK cells; cytosol (NES), heme added after transfection",significantly boosted
"W41F/G69F/D133A/T135F/K136F: quintuple, most HRP-like active-site mutant of pea APX (protein, UniProt P48534 2-250, looked up, variant W41F G69F D133A T135F K136F) L-ascorbate peroxidase, …: GKSYPTVSPDYQKAIEKAKRKLRGFIAEKKCAPLILRLAFHSAGTFDSKTKTGGPFGTIKHQAELAHFANNGLDIAVRLLEPIKEQFPIVSYADFYQLAGVVAVEITGGPEVPFHPGREDKPEPPPEGRLPAAFFGSDHLRDVFGKAMGLSDQDIVALSGGHTIGAAHKERSGFEGPWTSNPLIFDNSYFTELLTGEKDGLLQLPSDKALLTDSVFRPLVEKYAADEDVFFADYAEAHLKLSELGFAEA",activity in vitro (guaiacol),[3],most active
"mAPX−FFAF: sextuple mutant K14D, E112K, W41F, D133A, T135F, K136F of pea APX (protein, UniProt P48534 2-250, looked up, variant K14D E112K W41F D133A T135F K136F) L-ascorbate peroxidase, …: GKSYPTVSPDYQDAIEKAKRKLRGFIAEKKCAPLILRLAFHSAGTFDSKTKTGGPFGTIKHQAELAHGANNGLDIAVRLLEPIKEQFPIVSYADFYQLAGVVAVEITGGPKVPFHPGREDKPEPPPEGRLPAAFFGSDHLRDVFGKAMGLSDQDIVALSGGHTIGAAHKERSGFEGPWTSNPLIFDNSYFTELLTGEKDGLLQLPSDKALLTDSVFRPLVEKYAADEDVFFADYAEAHLKLSELGFAEA",localization of connexin43 fusion / gap junction formation,connexin43 (Cx43),formed very few gap junctions
